Reference: paper PMC3830201 (2013)

Target: F-actin assembled from rabbit skeletal muscle G-actin (Oryctolagus cuniculus (Rabbit), UniProt P68135)
Experiment: F-actin co-sedimentation

B1: GST-Swiprosin-1 fusion protein (wild type) (protein)
chain: MATDELATKLSRRLQMEGEGGGETPEQPGLNGAAAAAAGAPDEAAEALGSADCELSAKLLRRADLNQGIGEPQSPSRRVFNPYTEFKEFSRKQIKDMEKMFKQYDAGRDGFIDLMELKLMMEKLGAPQTHLGLKNMIKEVDEDFDSKLSFREFLLIFRKAAAGELQEDSGLCVLARLSEIDVSSEGVKGAKSFFEAKVQAINVSSRFEEEIKAEQEERKKQAEEMKQRKAAFKELQSTFK
B1: binds.
